Measured values from paper doi:10.1101/2020.05.08.084889 (bioRxiv, 2020).

B1: Recombinant rat EfnB1-FC (Fc fusion)
chain: ATPLAKNLEPVSWSSLNPKFLSGKGLVIYPKIGDKLDIICPRAEAGRPYEYYKLYLVRPEQAAACSTVLDPNVLVTCNKPQQEIRFTIKFQEFSPNYMGLEFKKYHDYYITSTSNGSLEGLENREGGVCRTRTMKIVMKVGQDPNAVTPEQLTTSRPSKESDNTVKTATQAPGRGSQGDSDGKHETVNQQEKSGPGAGGSGSGDTDSFFNSK
B2: E-cadherin complete extracellular region, biotinylated (Ecad-ATH) (domain or fragment)
chain: DWVIPPISCPENEKGPFPKNLVQIKSNRDKEIKVFYSITGQGADAPPVGVFIIERETGWLKVTEPLDREQIAKYILYSHAVSSNGNAVEDPMEIVITVTDQNDNKPEFTQAVFQGSVTEGALPGTSVMQVTATDADDDVNTYNAAIAYSILTQDPLLPSSMMFTINKDTGVISVLTTGLDREGVPMYTLVVQAADLQGEGLTTTATAVITVTDINDNPPIFNPTTYQGRVPENKANVEIAVLKVTDADVPDTPAWRAVYTILNNNNDQFVVTTDPVTNDGILKTTKGLDFEDKQQYVLYVTVVNVTPFEVILSTSTATVTVDVEDVNEAPIFIPCPKVVSIPEDFGVGQEITSYTAEDPDTYMEQRITYRIWRDAAGWLEVNPESGAIFTRAELDREDFEHVKNSTYEALIIAIDNGSPVATGTGTLLLVLSDVNDNGPIPEPRNMDFCQKNPQPHVINIIDPDLPPNTSPFTAELTHGASVNWTIEYNDPARESLILKPKKTLELGDYKINLKLTDNQNKDQVTTLDVFVCDCEGVVNSCKRTAPYAEAGLQVPA
modifications: biotin on the Avi-tag (BirA enzyme)
B3: Desmocollin-3 complete extracellular region, biotinylated (Dsc3-ATH) (domain or fragment)
chain: RWAPIPCSMQENSLGPFPLFLQQVESDAAQNYTVFYSISGRGVDKEPLNLFYIERDTGNLFCTRPVDREEYDVFDLIAYASTADGYSADLPLPLPIRVEDENDNHPVFTEAIYNFEVLESSRPGTTVGVVCATDRDEPDTMHTRLKYSILQQTPRSPGLFSVHPSTGVITTVSHYLDREVVDKYSLIMKVQDMDGQFFGLIGTSTCIITVTDSNDNAPTFRQNAYEAFVEENAFNVEILRIPIEDKDLINTANWRVNFTILKGNENGHFKISTDKETNEGVLSVVKPLNYEENRQVNLEIGVNNEAPFARDIPRVTALNRALVTVHVRDLDEGPECTPAAQYVRIKENLAVGSKINGYKAYDPENRNGNGLRYKKLHDPKGWITIDEISGSIITSKILDREVETPKNELYNITVLAIDKDDRSCTGTLAVNIEDVNDNPPEILQEYVVICKPKMGYTDILAVDPDEPVHGAPFYFSLPNTSPEISRLWSLTKVNDTAARLSYQKNAGFQEYTIPITVKDRAGQAATKLLRVNLCECTHPTQCRATSRSTGVILGK
modifications: biotin on the Avi-tag (BirA enzyme)

Tests used:
[1] = biological target: the molecule itself; experiment: single molecule AFM force measurement
Recombinant rat EfnB1-FC = biological target: B1; experiment: single molecule AFM force measurement

| Binder | binding result [1] | fold of heterophilic binding over EfnB1 homophilic binding (Recombinant rat EfnB1-FC) [fold] |
| --- | --- | --- |
| B1 | binds | – |
| B2 | – | ~3 |
| B3 | binds | – |
